Results reported in patent US20170158755A1 (PROTHENA BIOSCIENCES, published 2017).
Blank lines part the entries; values can stand above or below the binder they belong to.

Columns and labels:
[1] = target: T1, LGde1, human LAMA4 G domain with LG1 deleted, displayed on 293 cells (human, UniProt Q16363 1036-1821); experiment: flow cytometry, 650-labeled MCAM-Fc on 293 cells displaying the variant
T1 construct: pDisplay construct on 293 cells; vector tags and anchor not written here; also called LGde 1 (LG23)
T1 sequence: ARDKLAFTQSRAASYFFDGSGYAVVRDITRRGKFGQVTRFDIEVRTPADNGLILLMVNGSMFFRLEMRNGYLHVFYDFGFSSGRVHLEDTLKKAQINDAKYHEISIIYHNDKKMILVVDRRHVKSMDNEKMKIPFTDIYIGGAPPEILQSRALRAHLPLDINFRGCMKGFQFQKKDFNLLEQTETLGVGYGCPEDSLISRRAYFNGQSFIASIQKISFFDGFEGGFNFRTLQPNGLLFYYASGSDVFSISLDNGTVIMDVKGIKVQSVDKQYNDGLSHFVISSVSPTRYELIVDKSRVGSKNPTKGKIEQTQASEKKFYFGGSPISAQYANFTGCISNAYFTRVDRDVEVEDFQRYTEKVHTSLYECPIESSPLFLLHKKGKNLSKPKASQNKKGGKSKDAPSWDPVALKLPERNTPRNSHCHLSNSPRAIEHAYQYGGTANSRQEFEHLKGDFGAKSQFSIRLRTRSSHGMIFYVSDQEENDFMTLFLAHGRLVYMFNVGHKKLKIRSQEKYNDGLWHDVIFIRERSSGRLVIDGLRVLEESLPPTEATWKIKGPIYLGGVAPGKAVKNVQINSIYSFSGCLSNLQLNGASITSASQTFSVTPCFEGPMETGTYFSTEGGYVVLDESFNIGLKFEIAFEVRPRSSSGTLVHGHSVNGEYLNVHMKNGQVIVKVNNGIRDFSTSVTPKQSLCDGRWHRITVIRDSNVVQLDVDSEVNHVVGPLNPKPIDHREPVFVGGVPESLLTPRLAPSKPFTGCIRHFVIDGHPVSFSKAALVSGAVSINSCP
Source text: (§1) LGde1 has a full-length G domain (i.e., LG1-5) with LG1 deleted, LGde2 has a full-length G domain with LG2 deleted, and LGde3 has a full-length G domain with LG3 deleted. Recombinant MCAM-Fc protein was able to specifically bind 293 cells expressing LAMA4 variants LG1-5, LG1-3, and LGde 1 (LG23), but not 293 cells expressing LAMA 4 variants LG4-5, LGde2 (LG13), or LGde3 (LG12).

[2] = target: T2, LGde2, human LAMA4 G domain with LG2 deleted, displayed on 293 cells (human, UniProt Q16363 830-1821, limits assumed); experiment: as above
T2 construct: pDisplay construct on 293 cells; vector tags and anchor not written here; also called LGde2 (LG13)
T2 sequence: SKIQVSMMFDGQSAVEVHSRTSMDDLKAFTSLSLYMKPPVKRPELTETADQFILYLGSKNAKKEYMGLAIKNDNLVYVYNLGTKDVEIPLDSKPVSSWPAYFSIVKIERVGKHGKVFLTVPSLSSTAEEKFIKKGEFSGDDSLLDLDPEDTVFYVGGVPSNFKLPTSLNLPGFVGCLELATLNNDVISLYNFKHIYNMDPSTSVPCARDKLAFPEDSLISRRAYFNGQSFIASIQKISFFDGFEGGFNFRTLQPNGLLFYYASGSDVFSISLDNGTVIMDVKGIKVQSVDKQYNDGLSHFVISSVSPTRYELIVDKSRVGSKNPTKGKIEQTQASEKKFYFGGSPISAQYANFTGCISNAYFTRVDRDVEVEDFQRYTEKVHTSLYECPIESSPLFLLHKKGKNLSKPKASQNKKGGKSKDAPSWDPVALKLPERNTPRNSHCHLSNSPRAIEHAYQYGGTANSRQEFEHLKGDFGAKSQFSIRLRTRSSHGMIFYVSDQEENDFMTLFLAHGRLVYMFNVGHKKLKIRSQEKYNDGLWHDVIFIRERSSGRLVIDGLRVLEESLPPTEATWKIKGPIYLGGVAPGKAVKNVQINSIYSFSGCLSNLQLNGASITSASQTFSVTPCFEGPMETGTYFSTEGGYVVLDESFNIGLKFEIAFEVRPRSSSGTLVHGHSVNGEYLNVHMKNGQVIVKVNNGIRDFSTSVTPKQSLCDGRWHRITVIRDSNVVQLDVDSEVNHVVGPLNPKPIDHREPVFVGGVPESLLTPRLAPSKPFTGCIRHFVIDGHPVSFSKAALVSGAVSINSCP
Source text: as §1

[3] = target: T3, recombinant laminin 411 (human, UniProt P07942 22-1786; P11047 34-1609, limits assumed); experiment: hMCAM.CHO flow cytometric blocking assay; antibody pre-incubated with laminin 411; blocked partner: human MCAM on CHO cells
T3 construct: also called LAMA4 in complex with its gamma1 and beta1 chains
Description: The monoclonal antibodies against LAMA4 were tested for their ability to block the binding of LAMA4 to its ligand MCAM. IgG control antibody, 1C1, 5Al2, 5B5, 19C12, and 12D3 were pre-incubated with recombinant LAMA4 protein, LAMA4-positive healthy mouse brain tissue, or LAMA4-displaying human 293 cells. […] For the mouse brain tissue blocking assay, antibodies were used at concentrations of 2.5 ug/ml or 0.04 ug/ml.
Following two washes with FACS buffer (1% FBS in PBS), cells were resuspended with 650-conjugated anti-pan-laminin antibody (1:1000; Novus Biologicals) and incubated for 20 min at 4° C., and washed again. Cells were analyzed for pan-laminin reactivity by flow cytometry using standard procedures.

T3 sequence (chain, as listed by the source limits assumed, chain 1 of 3): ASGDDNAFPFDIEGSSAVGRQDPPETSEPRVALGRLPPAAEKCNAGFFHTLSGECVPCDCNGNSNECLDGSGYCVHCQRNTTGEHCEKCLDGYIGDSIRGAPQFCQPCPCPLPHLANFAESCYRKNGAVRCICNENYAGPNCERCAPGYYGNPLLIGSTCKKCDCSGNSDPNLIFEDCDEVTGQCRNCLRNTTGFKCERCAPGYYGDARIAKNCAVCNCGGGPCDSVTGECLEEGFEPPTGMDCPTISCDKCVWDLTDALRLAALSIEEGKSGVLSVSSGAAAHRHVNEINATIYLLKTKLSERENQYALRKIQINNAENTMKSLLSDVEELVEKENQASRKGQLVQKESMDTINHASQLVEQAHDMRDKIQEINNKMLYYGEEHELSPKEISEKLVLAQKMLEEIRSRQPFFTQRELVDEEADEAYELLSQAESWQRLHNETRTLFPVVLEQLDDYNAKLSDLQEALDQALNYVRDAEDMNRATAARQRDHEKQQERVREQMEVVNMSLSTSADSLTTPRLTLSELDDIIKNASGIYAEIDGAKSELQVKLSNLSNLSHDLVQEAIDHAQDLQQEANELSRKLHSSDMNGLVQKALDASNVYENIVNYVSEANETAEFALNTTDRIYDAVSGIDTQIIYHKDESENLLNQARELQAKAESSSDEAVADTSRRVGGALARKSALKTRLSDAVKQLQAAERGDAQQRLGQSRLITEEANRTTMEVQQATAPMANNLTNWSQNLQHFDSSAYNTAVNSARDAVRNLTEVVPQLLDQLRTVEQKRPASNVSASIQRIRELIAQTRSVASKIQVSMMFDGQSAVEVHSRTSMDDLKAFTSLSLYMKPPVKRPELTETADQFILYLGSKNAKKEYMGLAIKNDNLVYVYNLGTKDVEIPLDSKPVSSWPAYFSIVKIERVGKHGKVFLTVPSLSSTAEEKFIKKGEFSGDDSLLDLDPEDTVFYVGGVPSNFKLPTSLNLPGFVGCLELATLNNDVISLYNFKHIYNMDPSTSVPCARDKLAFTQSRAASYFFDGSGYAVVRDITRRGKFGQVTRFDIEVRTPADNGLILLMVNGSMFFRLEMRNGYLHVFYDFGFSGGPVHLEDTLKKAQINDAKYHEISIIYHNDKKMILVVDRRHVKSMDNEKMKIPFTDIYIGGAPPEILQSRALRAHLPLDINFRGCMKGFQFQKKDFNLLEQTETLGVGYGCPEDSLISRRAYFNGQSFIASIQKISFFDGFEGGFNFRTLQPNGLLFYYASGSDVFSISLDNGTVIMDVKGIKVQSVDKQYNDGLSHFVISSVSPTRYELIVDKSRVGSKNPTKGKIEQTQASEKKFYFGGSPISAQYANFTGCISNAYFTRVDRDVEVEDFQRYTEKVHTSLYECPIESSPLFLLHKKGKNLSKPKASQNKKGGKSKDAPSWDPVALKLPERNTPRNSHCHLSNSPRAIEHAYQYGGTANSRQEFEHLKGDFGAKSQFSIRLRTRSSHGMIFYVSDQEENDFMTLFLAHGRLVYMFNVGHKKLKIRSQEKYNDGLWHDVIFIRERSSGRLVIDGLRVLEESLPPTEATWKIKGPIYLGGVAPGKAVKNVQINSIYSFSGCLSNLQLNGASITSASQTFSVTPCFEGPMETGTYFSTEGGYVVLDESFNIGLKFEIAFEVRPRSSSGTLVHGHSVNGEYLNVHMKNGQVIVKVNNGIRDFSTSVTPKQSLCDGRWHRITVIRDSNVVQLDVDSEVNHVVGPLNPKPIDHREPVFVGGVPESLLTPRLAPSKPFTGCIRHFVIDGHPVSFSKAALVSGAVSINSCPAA
T3 sequence (P07942 22-1786 limits assumed, chain 2 of 3): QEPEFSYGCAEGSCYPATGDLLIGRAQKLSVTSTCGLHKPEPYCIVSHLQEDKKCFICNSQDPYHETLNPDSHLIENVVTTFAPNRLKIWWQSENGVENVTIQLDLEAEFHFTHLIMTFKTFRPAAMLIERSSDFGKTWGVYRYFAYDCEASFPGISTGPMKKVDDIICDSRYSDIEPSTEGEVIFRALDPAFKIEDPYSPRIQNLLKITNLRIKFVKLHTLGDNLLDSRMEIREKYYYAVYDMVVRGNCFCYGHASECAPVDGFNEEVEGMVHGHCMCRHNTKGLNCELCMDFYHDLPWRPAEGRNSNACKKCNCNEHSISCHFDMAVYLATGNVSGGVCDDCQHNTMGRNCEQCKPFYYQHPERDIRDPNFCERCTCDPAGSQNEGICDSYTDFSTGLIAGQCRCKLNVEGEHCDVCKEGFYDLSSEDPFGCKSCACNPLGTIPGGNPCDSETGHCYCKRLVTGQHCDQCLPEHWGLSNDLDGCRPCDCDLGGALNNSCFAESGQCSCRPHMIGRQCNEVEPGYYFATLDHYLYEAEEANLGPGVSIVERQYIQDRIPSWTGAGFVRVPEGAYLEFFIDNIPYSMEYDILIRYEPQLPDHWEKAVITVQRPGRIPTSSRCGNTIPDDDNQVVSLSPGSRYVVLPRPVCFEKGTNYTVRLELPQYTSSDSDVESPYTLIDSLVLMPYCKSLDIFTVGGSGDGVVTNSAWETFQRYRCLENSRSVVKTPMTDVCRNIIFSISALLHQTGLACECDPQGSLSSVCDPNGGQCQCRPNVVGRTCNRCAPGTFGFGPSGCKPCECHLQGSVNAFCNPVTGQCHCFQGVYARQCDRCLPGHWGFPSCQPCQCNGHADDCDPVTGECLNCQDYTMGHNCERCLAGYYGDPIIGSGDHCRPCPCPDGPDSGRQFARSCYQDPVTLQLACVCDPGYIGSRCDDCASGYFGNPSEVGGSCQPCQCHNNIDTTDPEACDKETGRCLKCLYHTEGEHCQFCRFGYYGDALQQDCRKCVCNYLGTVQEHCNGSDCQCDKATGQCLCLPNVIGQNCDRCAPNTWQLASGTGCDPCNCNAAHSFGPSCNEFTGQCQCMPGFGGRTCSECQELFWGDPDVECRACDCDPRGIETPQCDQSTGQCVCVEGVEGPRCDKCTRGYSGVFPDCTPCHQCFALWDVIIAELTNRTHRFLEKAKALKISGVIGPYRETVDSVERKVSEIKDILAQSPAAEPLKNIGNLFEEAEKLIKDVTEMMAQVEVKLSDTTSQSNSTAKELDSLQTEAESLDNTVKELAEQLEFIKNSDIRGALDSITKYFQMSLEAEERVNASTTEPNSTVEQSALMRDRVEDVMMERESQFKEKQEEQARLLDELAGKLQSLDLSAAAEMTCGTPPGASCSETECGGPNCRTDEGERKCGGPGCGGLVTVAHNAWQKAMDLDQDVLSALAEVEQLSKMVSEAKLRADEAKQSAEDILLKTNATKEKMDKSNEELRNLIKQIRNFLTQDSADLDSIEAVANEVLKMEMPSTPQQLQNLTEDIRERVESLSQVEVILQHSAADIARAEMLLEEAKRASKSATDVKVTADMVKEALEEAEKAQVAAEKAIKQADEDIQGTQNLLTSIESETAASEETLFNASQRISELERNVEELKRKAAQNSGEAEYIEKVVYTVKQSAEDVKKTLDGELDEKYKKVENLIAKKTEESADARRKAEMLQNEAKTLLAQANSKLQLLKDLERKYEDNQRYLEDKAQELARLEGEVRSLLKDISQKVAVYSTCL
T3 sequence (P11047 34-1609 limits assumed, chain 3 of 3): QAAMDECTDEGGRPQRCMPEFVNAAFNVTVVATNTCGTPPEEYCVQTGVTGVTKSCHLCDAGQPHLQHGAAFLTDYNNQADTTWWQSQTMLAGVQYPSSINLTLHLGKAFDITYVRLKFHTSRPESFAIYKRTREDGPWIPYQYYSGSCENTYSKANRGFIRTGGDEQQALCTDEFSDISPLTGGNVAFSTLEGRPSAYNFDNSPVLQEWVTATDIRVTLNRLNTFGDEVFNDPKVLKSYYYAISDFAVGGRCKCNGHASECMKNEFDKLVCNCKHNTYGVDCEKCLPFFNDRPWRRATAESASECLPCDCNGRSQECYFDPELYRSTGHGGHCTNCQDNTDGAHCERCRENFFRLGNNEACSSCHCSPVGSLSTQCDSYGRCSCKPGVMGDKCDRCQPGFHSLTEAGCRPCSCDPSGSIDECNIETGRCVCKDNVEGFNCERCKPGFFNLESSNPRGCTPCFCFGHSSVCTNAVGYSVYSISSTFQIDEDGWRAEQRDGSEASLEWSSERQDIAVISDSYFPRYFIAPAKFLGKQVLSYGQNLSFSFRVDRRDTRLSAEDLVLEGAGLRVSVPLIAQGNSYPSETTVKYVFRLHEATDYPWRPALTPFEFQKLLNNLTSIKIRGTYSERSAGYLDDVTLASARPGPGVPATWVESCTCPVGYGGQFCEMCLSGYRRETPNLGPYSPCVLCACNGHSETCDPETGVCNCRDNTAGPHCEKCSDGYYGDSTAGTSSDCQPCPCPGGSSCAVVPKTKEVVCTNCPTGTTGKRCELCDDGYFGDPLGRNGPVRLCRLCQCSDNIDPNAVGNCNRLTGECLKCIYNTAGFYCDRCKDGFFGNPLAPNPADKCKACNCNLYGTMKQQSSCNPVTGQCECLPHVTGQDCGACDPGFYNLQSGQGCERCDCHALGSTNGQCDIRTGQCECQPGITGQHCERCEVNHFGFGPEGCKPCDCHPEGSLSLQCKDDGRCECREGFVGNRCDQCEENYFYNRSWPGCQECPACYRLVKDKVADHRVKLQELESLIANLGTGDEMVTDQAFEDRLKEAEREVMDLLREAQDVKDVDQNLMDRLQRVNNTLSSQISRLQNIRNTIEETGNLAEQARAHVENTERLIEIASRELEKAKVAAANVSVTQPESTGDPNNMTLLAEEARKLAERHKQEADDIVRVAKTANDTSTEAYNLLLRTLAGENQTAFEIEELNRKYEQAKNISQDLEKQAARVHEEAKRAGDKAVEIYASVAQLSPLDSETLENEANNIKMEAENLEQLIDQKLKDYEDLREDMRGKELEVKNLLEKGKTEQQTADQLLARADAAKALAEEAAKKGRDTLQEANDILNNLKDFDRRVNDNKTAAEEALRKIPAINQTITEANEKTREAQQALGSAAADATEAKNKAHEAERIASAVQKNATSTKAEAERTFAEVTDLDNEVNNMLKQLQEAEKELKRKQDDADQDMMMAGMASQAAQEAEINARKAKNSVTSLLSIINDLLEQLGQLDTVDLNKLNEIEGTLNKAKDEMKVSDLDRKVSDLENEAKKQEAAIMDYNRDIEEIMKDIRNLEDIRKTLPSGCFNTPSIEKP

binding result [1]: binds
binding result [2]: no binding
B1: mouse MCAM-Fc fusion protein (Fc fusion, UniProt Q8R2Y2 24-563, looked up)
chain: VPGEEKQPVPTPDLVEAEVGSTALLKCGPSRASGNFSQVDWFLIHKERQILIFRVHQGKGQREPGEYEHRLSLQDSVATLALSHVTPHDERMFLCKSKRPRLQDHYVELQVFKAPEEPTIQANVVGIHVDRQELREVATCVGRNGYPIPQVLWYKNSLPLQEEENRVHIQSSQIVESSGLYTLKSVLSARLVKEDKDAQFYCELSYRLPSGNHMKESKEVTVPVFYPAEKVWVEVEPVGLLKEGDHVTIRCLTDGNPQPHFTINKKDPSTGEMEEESTDENGLLSLEPAEKHHSGLYQCQSLDLETTITLSSDPLELLVNYVSDVQVNPTAPEVQEGESLTLTCEAESNQDLEFEWLRDKTGQLLGKGPVLQLNNVRREAGGRYLCMASVPRVPGLNRTQLVSVGIFGSPWMALKERKVWVQENAVLNLSCEASGHPQPTISWNVNGSATEWNPDPQTVVSTLNVLVTPELLETGAECTASNSLGSNTTTIVLKLVTLTTLIPDSSQTTGLSTLTVSPHTRANSTSTEKKLPQPESKGVV
notes: extracellular domain; Made in house; also called mMCAM-Fc; 650-conjugated mouse MCAM-Fc; not shown: human IgG1 (Fc part of the fusion)

IC50 (read off the curve) [3]: ~0.03 µg/mL
B2: mouse monoclonal antibody 19C12 (antibody, V domains shown)
VH: QVQLQQSGAELVKPGASVKISCKASGYAFSTYWMNWVKQRPGEGLEWIGQIYPGDGDTNYNGKFKGKATLTADKSSSTAYMQLSSLTSEDSAVYFCARSDGYYDYWGQGTTLTVSS
VL: NIVLTQSPASLAVSLGQRATISCRASESVDSYGTSFMHWYQQKPGQPPKLLICLASSLESGVPARFSGSGSRTDFTLTIDPVEADDAATYYCQQNNEDPPTFGAGTKLELKR
notes: Mouse hybridoma antibody; Mouse IgG2b was used as its isotype control; also called m19C12
